The assay has as its target native porcine cardiac thin filaments (F-actin plus regulatory proteins, troponin, and tropomyosin) (porcine) (UniProt P42639). The assay is described as follows: co-sedimentation.

Take “mouse cardiac myosin binding protein-C N-terminal domains C0C1 (domain or fragment)”: the dissociation constant (Kd) was 2.2 µM.
Under “human cardiac myosin binding protein-C N-terminal domains C0C1 (domain or fragment)” stands 2.2 µM.

The Kd is the concentration at which binding is half-saturated.
